Assay results taken from PMC9736779.

Biological target: nucleolin (NCL) (Homo sapiens) (UniProt P19338)
Assay: SPR
Conditions: SPR (Biacore X-100, CM5): 10 mM HEPES, 70 mM KCl, pH 7.4, 25 C, analyte 5-500 uM, two-state reaction fit

nucleolin (NCL) (Homo sapiens), sequence (P19338 whole entry): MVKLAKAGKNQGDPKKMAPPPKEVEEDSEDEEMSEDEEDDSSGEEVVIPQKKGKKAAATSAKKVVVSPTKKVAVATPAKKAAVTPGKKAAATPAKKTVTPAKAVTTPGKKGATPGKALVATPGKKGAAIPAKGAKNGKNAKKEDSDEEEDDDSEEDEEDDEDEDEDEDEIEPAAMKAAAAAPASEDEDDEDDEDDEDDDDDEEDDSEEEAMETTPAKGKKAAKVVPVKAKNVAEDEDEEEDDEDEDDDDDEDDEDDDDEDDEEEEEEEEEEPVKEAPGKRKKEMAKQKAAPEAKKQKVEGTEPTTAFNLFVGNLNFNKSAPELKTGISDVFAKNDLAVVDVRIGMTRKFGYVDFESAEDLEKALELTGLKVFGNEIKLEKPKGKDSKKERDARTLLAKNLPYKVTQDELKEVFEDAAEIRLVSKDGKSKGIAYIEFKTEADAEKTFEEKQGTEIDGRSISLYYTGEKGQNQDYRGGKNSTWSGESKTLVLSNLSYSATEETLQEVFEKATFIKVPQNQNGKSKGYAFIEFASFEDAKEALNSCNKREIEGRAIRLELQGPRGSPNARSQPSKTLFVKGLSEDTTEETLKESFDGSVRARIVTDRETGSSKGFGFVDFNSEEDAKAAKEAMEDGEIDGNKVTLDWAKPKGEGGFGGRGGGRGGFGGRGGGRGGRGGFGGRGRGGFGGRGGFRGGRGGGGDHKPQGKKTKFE

With GGGGNNGGGGTGTGGGGTTGGGG [TBAG41S] the Kd (N at 5,6 = abasic site mimic (dSpacer, 1',2'-dideoxyribose)) was 41.5 µM.
Sequence GGGGTTGGGGNNNGGGGTTGGGG [TBAG4GS] has a Kd (N at 11-13 = abasic site mimic (dSpacer, 1',2'-dideoxyribose)) of 32.2 µM.
